Test results reported in patent publication US6512161.

Experiments:
[1] = target: either human or rabbit apoB; experiment: densitometry of non-reducing anti-apo(a) immunoblots, apoB/apo(a) transgenic rabbit plasma (n=3)
[2] = target: rabbit apolipoprotein B-100 (rabbit) (UniProt P17165); experiment: densitometry of non-reducing anti-apo(a) immunoblots, apo(a) transgenic rabbit plasma (n=3)
UniProt P17165, sequence (P17165 whole entry): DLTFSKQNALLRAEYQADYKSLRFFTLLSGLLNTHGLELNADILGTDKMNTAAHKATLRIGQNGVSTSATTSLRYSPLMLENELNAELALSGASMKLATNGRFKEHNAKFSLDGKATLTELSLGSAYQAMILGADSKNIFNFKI

Substance	percent of apo(a) covalently bound [1] [%]	percent of apo(a) migrating as free apo(a) [1] [%]	percent of apo(a) bound [2] [%]	percent of apo(a) free [2] [%]
human apolipoprotein(a) (from UniProt P08519 20-2040)	80	20	–	–
human apolipoprotein(a), P08519 20-2040	–	–	20	80
